We go through 15 sequences from the DeepSol protein solubility set.

This series in a line: soluble on expression in E. coli; label from the status in PepcDB or PDB records.
In the case of “MAHHHHHHMRPSFGSLDYNVLSNFCEKLFLAADKNDRNEVITKKTLQMFFTSKIFYEILNHFKNLSTEENKKYVYAKYKTIYLKKCFDNNITPEPGSPKNEDAVSEVDNKIDDEDKEEEEQITNDKYEHYEENNNDYYKGREKIGTQSKGTEDSVDFNLSLKHAQYAVNGIIKIIYIPRYSETRAQIIPFIFRIIFFFNGEEETKNIGYII”, the “soluble on expression in E. coli” value is “not soluble”.

“MAHHHHHHMRRVLLFRNRVDFVATLLQQGRLADMLMLQHFTSRTPQKPPAGNAAERNSGGTKVSVGETSRRALLTRCEAVKAKAMSTPCTDWLADAYGSGEWCALSESRDMVRVVASDNDPTRVKLRGTFPVLVQEGSSPASVRLAASKESGEALIVTVPLVQSGEKVRSSAIGGGIRAVTLKEADGSVVSDAATSVDAFAAEQNILSAAVCSGILGKLEEICALHATHTVRYDALLVRNPAVQKRLSQLACARFSLDALSSFVASAAVDEPMPLVESVALRMHAKHALAIGMGSARDIIHGTAMLKASPHRSKPERLIDYPYAQQLFASERYVLSSLGASSAAETMRHFTPLLMQPQTHMPAGVQGPLASLLLGGKGGNVNLAAPHANLRVSAAFLEKDIAAMLQRIQQQKKRADPLFVMAIAQYVAELFANTAVVYRTTASLTHEDDSAPRDWLLTQAFCADSSARRATILCEWDLSSAARKAIGKAADLNGCTTHPVELMNAEPARKPKVPSKSAAASVTQEAN”: the “soluble on expression in E. coli” value was “not soluble”. Then “MAHHHHHHMRSTSALYRYACDEEGCVSHSELVKLFHGIDVALGTDADATAKADDMTPAPPPPALADKMLLAYAPNLCFPTHLTLSQSYLGDAGLAAFMRMLPVLRWVRAIEARGVGAGPRTIEALSGALTAYLVEGCEEAAALPTVATMGDSVSGAEQLAGGRLPALELVDLRDNDGIYALSGQRLLTALRKRRLMLRAWCAAHAGVGDVVPALEVLVDLDALPPSTANALHEWNEGAANLKYQRMLARETHRWQEQVQVFTVRSAVSEAMKCSDSDMPGTAVAGAAAGQPVGEHVIFRLPSSADGDSQMTQMTCEVNACMSDFLTASCCLSSAKEAAPQPAHVVSGSSSLACPLPTLDGVRAALQVCIDFGADTLAILPHTNATLWYVASVWQQQQKEQHATTPSSSADTAEYVQLNYWEAKANVAALLRGLQANPALETELETSSQAGGVVIQRHLYRLRELYVQLDQNDAPHEDAICTARVAGVGATPLSEMVALYYRIVAALVTRRFSETHLPSMRACEQHISDVTEHVLNHLVVGEVSSEALEARIERLRSSTDAGSVPSGRPSGASDFSQSTRALPPVMAQCLYHLRRHQAEAEAWVKTYAGTAVAAPQPSSSSAAAAPIHAFHACHCADGLRRHMDECVAPTSSNEGLSSNLLPLPCTSCCYHALQAAQTLLQSPGEGSSGECELCARWAILEPVRRALPRELRMFFLDMVIRHRSRVRGGCAYVPSLDSVTGVGAPLPLSMVDWLAYTEHQSENWAKVLRVFGEWYRLRALESYGIAEARTLLRQPPT”, with “not soluble”; and “MAHHHHHHMRTDKCVSEAVQTFREAQNLLPTLYTHLSALENIMTQKGALVGAARRREQCFAKALPASHFLCMDTGTEERTLPQATTAGPSCVHTTSPVMTSPLGVLAAFSASTVHHLVAQHQRDVEELLGVVSRITQRSWSQKVEQLKSKIAQLERASEVGETPEHPPSAGGIVAVSSTPASSSYFATASELSVALYGFAACLLKMGNVLQETMLALRKDARLSLMAHAAPGSAALLTSTSADTASHLAAMLAREDRTSEGMSLLPMHSSHCGSLHEATSASSPFSGAAGVQAAPLQPMRLVDAVGKLKSFLEARWKSCCDSYLAPESHLLLALV”, with “soluble”.

For “MAHHHHHHMSGITVQLVFAFVGTRVPYFMPESATAASSPARSPFGNASSVSFNAAAQPTLRADSARTSPRLTPCIPTNLFTAHGLLSHLAKALEPSLHAAANPEAATAESASLSPTAPLPFHKPPVFELFDYASLDPLEGSAALRDEQVLLVLCDIATTAQLVEALQLEWLEVYSGVHHPHHRSCSASTPEPAHTTDMAVCTTEEKLRNVAHAQQALCKPVGLHLSLLRKELLSREATLAAQKEQLAQMRSCTTEGTAPAAPATASGSDGLSTPMLSGRAASFPLLVELEPSLSSEPAPSATDATHLQKLEAPLALCEARVRAVESLMQRAAKHHTKLLGLAASERATEEAFQRGNVSRACAEYLEHTEQDRSAAEAIIADYQVEMTRQVKVVRQLIAYITQVRKLASKAKYEMGVVELILSRLSLTSLRPRLMKEAEALLRRRVILRRAARRQMLLLQETEFVKLQQDLESFSQRMEVQKVLPEKVRWYLRAPLPSLMPEEDPVATLLDHALIDREEDEAQELVEKTRVYTADSSDPEKNALQITEALLPVERLARRLEEARASAAQYKSRVEELEERLKLYETAEALSPPPLQDSAVKSPSTERPAEGGGSFEEG”, the “soluble on expression in E. coli” value was “soluble”. Turning to “MAHHHHHHMSGRCFSKSLESDVDSAAAAESSLSATEVSTDGYRTGKQPRHVAFLLEKDLKETDTEEVPRAAFAGRRGGAGARPTEEQWSWSGRAEADALRQRALQCGEDFVRVASGLGYEVVAHTPTAFLKRGMTEKTAALFGVAQPEKQGGTGLAVARSATARASTGAVLLSSPSAAETTVTLAAPFSSGGSSVFPRKGELDSCSSRSSSPGTEDQVGMVPVLSPLLQGSEPGQRRLSTDASLRALEVQTPRTTGAHAGVYRYPATIASLHPLQDSTPNSVADGNGVHTSPHRSSRTGFGAEHHANDGANPPGPAIANSTRAVHWTPTTRHPSPSRGSPASHRALTPRTVFPTGNHPVTASLMVPGQQSDAFAVRLSIMDVTSSRTNSNTNTSMSTEHLNGHEFVNVGGSQNTNNRFFTSSTDALNTPAVRMTDDEDWLRATGRLIQ”, the “soluble on expression in E. coli” value is reported as “not soluble”. Turning to “MAHHHHHHMSISGAAAPAPLRGRESGGNVPGSMGALIKKLHPLYTQRVRPLEEMYSFDVFRPSWYEETILNERPFITLFGPWSAGKTTFINYLLQSNDLWTGPQPTTAEFTVVMYGKEPGPVAGQALANSKHLPFKGLLDFGESFIRNLKGFQAPHALLERVTLIDTPGVLESAKDIHQRKYDYVNVCRWFAERSDLIFVFFDPSKLDAGGELRQLFQTSFKGFENRLRLVLNKADTISTQELMRVYGSLFWNLSNFINTTEPPRVYVGSFWDKPYSPNSFSRLFAEEKLDLLHELLEVIPQQARDKKVASLIRRAKEVLVHAVILGGIRADLPLLFGKSKAKKKAAEQLPRRYELIGARYKMNHRDFPPVQAYRSFLERFDVAKFPPLQKAEKAGLIRGIQELIDTILPSMLRPVCNTRAANPFEEDKQTGLLSMYRDHVLLQRDGRPGMQGGTDKVASTMGQGVPDSATTGPSSSVAAAPASGPSSLLGPGPAVTALSASPPFIELPSRAMAASSTAVAASSPPPPPPSSAAATSSPADMQAMMAIMQQMVAYQQQQQQQQDRQSSSAPATVNSHGTLSSSSSETSGCLAESSVPVTPQESNLNSEPQPPTVVPQLGLPNSCATQISAWAGGDESKSQH”, the “soluble on expression in E. coli” value was “soluble”. With “MAHHHHHHMSKAVQFSVLKQGSLEPGSWTQRVLTIDTKSDTVTISRKHHPEHVFYHSLEVAHVQMWPRYKASEISGHFNSLKAKMTLRIFGKQVPVPKMSVEAVTTADVAEMIRVPSVPSSISLDASLNIERPPVAAATLSQKQKERHPATATSANDDLCDSWMIRFTSIDSYELAVMLLRNMRNTEGKRKRLFGDHVLQDLERVQKAWAEETTGAKSIGGALRSGS”, the “soluble on expression in E. coli” value is listed as “soluble”. Then “MAHHHHHHMSSNDGLSEDTVMYIKDNNIGQLMEYILRCIITDKPTKPLEYVHELTASPLPPRVVLAGPPASGKGTQARHICSYYKRAIGKKPVHVSSGDLLRAEVAQGTHLGKIAENFMQRGELVPDSLIISIIRNRLTQEDAVMNGWLLDGFPRTRSQAIALDAAGLCPRIFVVLDTPDDVLFGRVEGRRTDPVTGIIYHLKYNPPPENDTALLERLQHRDDDTREVLGPRLETYHSMVEGLLDYYGSIMYHVDGNRPEAAITKDITEYLQNHNVA”, with “soluble”; and “MAHHHHHHMSSTEEYYKLMEVILHILKKHKRHVECLKILLKLNRRDKIKDLLFECGDMITCKQMALICSRHSIHLEFTQEEVIRYPHMNLNQLASLSSGEHLSSIFLKLAKDLDVEEPKLPEDIYKTHLEEKRNTNVWDSAKQNLSASFVNAFVNAAFCKDKLMTVNSSL”, with “not soluble”. Turning to “MAHHHHHHMSSTSTTHPQLLLQQSKVKYLMKVCRPLCQFTQKCNRGSWVERTFGAERKKASSASEDNDLLSMHLPFSSDTAPPCGYSTTEAVRLISLPYHPHVYAYCLFESRLIFERAVLHGAIAPNVKPSQFFVHPISVMRHPEKFKLFFGEERSDVLLRLLVDLLGEYDGDDRSVVQKCRAKGVSNENWVPFLRGLGLCLAMGDIASSQATFVMEDCITGGGADCGLSLPGSYEKRGSVAAELLMEASVELGSLTLANLSLSLYRQFLPEVPLTASKKVTICTTRCERRFLEWNQRCLKTGPRR”, the “soluble on expression in E. coli” value is given as “not soluble”. As for “MAHHHHHHMSTNISPNIKKGGVTAADLMQLQGAALRLRSQCTQREADNRRLTQKLREYEEQLFFLRANELILRKQVSVWSSYHRLFAQPLYEARLAVERYKHEAHQSLVHEMQVDRQRRSSLANAANEKRERERAGLQARLRQLQELQDEKRKKNEELELRLRRASEESLRAQKQASKLKDELAYCMDRLEESERERERVKRHLSEHEAALLKARHNVAGMGHFEEEIRSRDTVIAQLQRTVRELNTIMAQQSASRLEEANGENTPPQHEAEEKKLAASPQRLLNDSCDSEWVLKQSIGWFRSKMEREMKPSTPRRQMFEPCSSSAHPAPSLSSFSWMEGRCDSGDVDLQEFLSRELQAPLL”, the entry is “not soluble”; as for “MAHHHHHHMSYLLHSSSYAAATAAAERDGPARGAGGGPLNVVLSRVRSLLHGEPSRVARATSIIDDGSSGSLKRAERHSGASSASRREVLLPLTHDSARVARVPEVSGFIEHGGGFAIPAAKASPRTAPTPVAPPTTNESPVHRPPSARPVDAARDASLYERAVDYTDLEEILRCPLPPVPGCPTPCAFGRHSAGLSSDGSVTAAATLSPPPAPSSARQPPLVFRCIAADSDTGISVYSTPAEDCPMHLMRAYAVLPCSPGDVLQYMDNDIRPRWDSHLRRSALLRELTPPEQTKAVERQYRLSTSIGTAGAAVSQRSPTSLSAQSQGALRQRASSSPRTTGAIHGGCGSAVVSGPATAAASSPTAFQYLPGQRRVAIHYLETRSPVPFVQDRDFEIVVAEEVRPDDTAYVKAFSTPLGYHMPLGPHQSRYVRAVVVLSGMVARPLDAARVEEVLPPVLLRHHRAAAQHGNIQVAGIATKKPSASATVCGDAAARAACVAAPHRYCVVEYVGLVHPMGLLPAVLVNMIISAQLNAMRKMQAFIMQHPMSTLRPRSATHAATGEATGQPLQELLVSLQSLSPSPRKSSRMGKSQESDAAGRTREVKPEATGASAASVSAPLAASPAPVWWRRQMHRFASNL”, “not soluble”; as for “MAHHHHHHMTAYPFPIIDVSPLYQNTGAVMEVAKKIDEACRTWGFFYVVGHPIPRERFQELSRMARKFFSLPLEEKLQIDIKKSRHHRGYGEVNAEQLDPSAPNDHKETFDMGCHLPEDHPDVVAGKPLRGPNRHPTQLEGWRELMETHYREMQHFALVLLRALAVAIGIEEDFFVPRFVEPLSVFRMIHYPALPKTKEGRLVCGEHTDYGIITLLFQDTNGGLQVRDLSGEWIDAPPLEGSFVVNIGDMMNMWSNNRYRSTPHRVVNPGVDRISMPFFCEPNPNVVIKCLENCHSAENPAKYPPVKASDWLQKRFAQTYAYRKSML”, “soluble”.

Regarding “MAHHHHHHMTEYALSLYVTLPSSFPKAAPRATMPYCCHNVPITPPNINPSEALAYQWSSTTSTLVEAVRNAFQNAADCWGPVEPPSMRSVTLQLSGETDRLLQDLVTNPNCLDAYCYQLPIVKLMREASRHTVSEIERVANENTTLRNEVETLEAQVKDLQRYLDEQVSQLQQLEQNRLLLSVGTPEALIKTLEDDVRRMSSDCMTLGRRALDAYKADKGGFQDLLKQYKAQSKATHMLDLKRLSYRAQCAAS”, the “soluble on expression in E. coli” value was “not soluble”.
